Each block holds one binder with its values, some of them ahead of it.
B2: AP-Nogo66 (ligand, human, UniProt Q9NQC3 1055-1120, looked up)
chain: RIYKGVIQAIQKSDEGHPFRAYLESEVAISEELVQKYSNSALGHVNCTIKELRRLFLVDDLVDSLK
notes: also called AO-Nogo66; not shown: FLAG tag at the N-terminus; human placental alkaline phosphatase (AP)

How the values were obtained:
AP-Nogo66 [1] = molecular target: B2; experiment: expression cloning, AP-fusion bait (20-50 nM) on COS7 cells transfected with human cDNA pools
Source text: (§1) To identify novel receptors for inhibitory myelin proteins, an expression cloning approach was taken. As bait, constructs were generated that fused Alkaline Phosphatase (AP) to the N- and/or C-terminus of the following characterized myelin inhibitors (human cDNA used): Nogo66, two additional inhibitory domains of NogoA (NiRD2 and NiG20) (Oertle T, J. Neurosci. 2003, 23(13): 5393-406), MAG, and OMgp. These constructs were transfected into 293 cells to produce conditioned medium (in DMEM/2% FBS) containing the bait proteins. The cDNA library used in the screen was comprised of full-length human cDNA clones in expression-ready vectors generated by Origene. These cDNAs were compiled, arrayed, and pooled. Pools of approximately 100 cDNA's were transiently transfected into COS7 cells.
(§2) In particular, on Day 1, COS7 cells were plated at a density of 85,000 cells per well in 12-well plates. On Day 2, 1 mg of pooled cDNA's were transfected per well using the lipid-based transfection reagent FuGENE 6 (Roche). On Day 4, screening was performed. […] The cells were washed once in AP Buffer (100 mM NaCl, 5 mM MgCl₂, 100 mM Tris pH 9.5), and incubated in chromogenic substrate (Western Blue, Promega), and analyzed for presence of reaction product one hour after incubation, and again after overnight incubation. […]

[2] = molecular target: T1, Nogo Receptor (hit from the human cDNA library) (human, UniProt Q9BZR6 27-447); experiment: as above
T1 construct: whole, on cells; also called NgR; NgR1
T1 sequence (looked up): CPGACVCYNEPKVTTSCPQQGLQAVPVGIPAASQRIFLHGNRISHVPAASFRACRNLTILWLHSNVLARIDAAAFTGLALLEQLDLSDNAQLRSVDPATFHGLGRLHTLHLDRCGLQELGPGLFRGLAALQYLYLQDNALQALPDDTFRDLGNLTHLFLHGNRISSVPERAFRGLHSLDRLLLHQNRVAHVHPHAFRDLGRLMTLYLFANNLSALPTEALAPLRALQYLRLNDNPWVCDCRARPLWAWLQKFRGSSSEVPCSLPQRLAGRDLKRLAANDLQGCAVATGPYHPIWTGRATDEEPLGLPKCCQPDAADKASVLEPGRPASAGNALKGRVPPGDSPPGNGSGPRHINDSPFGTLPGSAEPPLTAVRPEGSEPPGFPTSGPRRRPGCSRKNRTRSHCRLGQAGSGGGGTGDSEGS
Source text: as §1, §2

AP-Nogo66 [3] = molecular target: B2; experiment: AP activity on transfected COS cells after incubation with AP-Nogo66
Procedure: In particular, on Day 1, COS7 cells were plated at a density of 85,000 cells per well in 12-well plates. On Day 2, 1 mg of pooled cDNA's were transfected per well using the lipid-based transfection reagent FuGENE 6 (Roche). On Day 4, screening was performed. Briefly, culture medium was removed from cells and replaced with 0.5 ml of 293 cell-conditioned medium containing AP-fusion bait proteins (20-50 nM). Cells were incubated at room temperature for 90 minutes. The cells were then washed 3 times with phosphate-buffered saline (PBS), fixed for 7 minutes with 4% paraformaldehyde, washed 3 times in HEPES-buffered saline (HBS), and heat inactivated at 65° C. for 90 minutes to destroy endogenous AP activity. The cells were washed once in AP Buffer (100 mM NaCl, 5 mM MgCl₂, 100 mM Tris pH 9.5), and incubated in chromogenic substrate (Western Blue, Promega), and analyzed for presence of reaction product one hour after incubation, and again after overnight incubation. Positive cells were identified by the presence of dark blue precipitate over the surface of the membrane. Positive pools were further broken down to identify individual positive clones by subsequent rounds of screening.
To confirm Nogo66 binding to LILRB2 (SEQ ID NO: 2), and to test if Nogo66 binds to the murine orthologue PirB (SEQ ID NO: 1), binding assays similar to those described in Example 1 were carried out. […]

binding result (AP-Nogo66 [1]): binds
B1: LILRB2, transcript variant 1 (leukocyte immunoglobulin-like receptor, subfamily B, member 2) (receptor)
chain: QTGTIPKPTLWAEPDSVITQGSPVTLSCQGSLEAQEYRLYREKKSASWITRIRPELVKNGQFHIPSITWEHTGRYGCQYYSRARWSELSDPLVLVMTGAYPKPTLSAQPSPVVTSGGRVTLQCESQVAFGGFILCKEGEDEHPQCLNSQPHARGSSRAIFSVGPVSPNRRWSHRCYGYDLNSPYVWSSPSDLLELLVPGVSKKPSLSVQPGPVVAPGESLTLQCVSDVGYDRFVLYKEGERDLRQLPGRQPQAGLSQANFTLGPVSRSYGGQYRCYGAYNLSSEWSAPSDPLDILITGQIHGTPFISVQPGPTVASGENVTLLCQSWRQFHTFLLTKAGAADAPLRLRSIHEYPKYQAEFPMSPVTSAHAGTYRCYGSLNSDPYLLSHPSEPLELVVSGPSMGSSPPPTGPISTPAGPEDQPLTPTGSDPQSGLGRHLGVVIGILVAVVLLLLLLLLLFLILRHRRQGKHWTSTQRKADFQHPAGAVGPEPTDRGLQWRSSPAADAQEENLYAAVKDTQPEDGVEMDTRAAASEAPQDVTYAQLHSLTLRRKATEPPPSQEREPPAEPSIYATLAIH
notes: Expressed from full-length human cDNA in transfected COS7 cells; also called LIRB2; MIG10

Binder: B2
binding result [2]: binds

binding result (AP-Nogo66 [3]): binds
B3: PirB (paired-immunoglobulin-like receptor B), mouse (receptor)
chain: SLPKPILRVQPDSVVSRWTKVTFFCEETIGANEYRLYKDGKLYKTVTKNKQKPANKAEFSLSNVDLRNAGQYRCSYSTQYKSSGYSDPLELVVTGDYWTPSLLAQASPVVTSGGYVTLQCESWHNDHKFILTVEGPQKLSWTQDSQYNYSTRKYHALFSVGPVTPNQRWICRCYSYDRNRPYVWSPPSESVELLVSGNLQKPTIKAEPGPVIASKRAMTIWCQGNLDAEVYFLHNEGSQKTQSTQTLQQPGNKGKFFIPSMTRQHAGQYRCYCYGSAGWSQPSDTLELVVTGIYEHYKPRLSVLPSPVVTAGGNMTLHCASDFHYDKFILTKEDKKFGNSLDTEHISSSRQYRALFIIGPTTPTHTGTFRCYGYFKNAPQLWSVPSDLQQILISGLSKKPSLLTHQGHILDPGMTLTLQCYSDINYDRFALHKVGGADIMQHSSQQTDTGFSVANFTLGYVSSSTGGQYRCYGAHNLSSEWSASSEPLDILITGQLPLTPSLSVKPNHTVHSGETVSLLCWSMDSVDTFILSKEGSAQQPLRLKSKSHDQQSQAEFSMSAVTSHLSGTYRCYGAQNSSFYLLSSASAPVELTVSGPIETSTPPPTMSMPLGGLHMYLKALIGVSVAFILFLFILIFILLRRRHRGKFRKDVQKEKDLQLSSGAEEPITRKGELQKRPNPAAATQEESLYASVEDMQTEDGVELNSWTPPEEDPQGETYAQVKPSRLRKAGHVSPSVMSREQLNTEYEQAEEGQGANNQAAESGESQDVTYAQLCSRTLRQGAAASPLSQAGEAPEEPSVYATLAAARPEAVPKDVEQ
notes: Expressed from cDNA in transfected COS7 cells; also called murine orthologue PirB
